The target in this experiment is F-actin (rabbit skeletal muscle actin filaments) (rabbit, UniProt P68135 1-377). Briefly: co-sedimentation.

B1: dephosphorylated synapsin I (natural protein)
chain: not shown
Take B1: the Kd (in general, the free concentration of one partner at which half of the binding sites on the other are occupied at equilibrium, for simple one-to-one binding) was 2000 nM.

B2: synapsin I phosphorylated on all three sites (natural protein)
chain: not shown
modifications: phosphorylated on all three sites (sites 1, 2 and 3); 2.6 mol phosphate/mol synapsin I
For the molecule B2, the Kd stood at 1800 nM.

The values above are taken from PMC2115537 (The Journal of Cell Biology, 1989).
